These results are taken from publication PMC7466704, “A Peptide-Based Nanocarrier for an Enhanced Delivery and Targeting of Flurbiprofen into the Brain for the Treatment of Alzheimer’s Disease: An In Vitro Study” (Nanomaterials, 2020).

Several values for one entry are separate records, joined by “and”; a condition that tells them apart may be missing. Equal entries are not always repeated. Where a SMILES comes first, the peptide text is derived from it. The star is where a group is joined. X1 = CC(C(=O)*)c1ccc(-c2ccccc2)c(F)c1

One data set deals with bEnd.3 cells. Description: LDH release assay (loss of cell membrane integrity). Particulars: 25 to 400 µM, 24 and 48 h, absorbance 492 nm, n = 6. The data set is classed as cell-based, mouse. On the procedure:
Immortalised brain endothelial cells, bEnd.3 (passages 15–20), were cultured, according to the (manufacture ATCC) product sheet, in a Dulbecco’s modified eagle’s medium (DMEM) high glucose medium with L-pyruvate, containing 10% (v/v) foetal bovine serum (FBS) and 1% (v/v) of 500 U/mL Penicillin/Streptomycin (Gibco, Gaithersburg, MD, USA). Cells were seeded at a density of 5 × 10^4 cells per cm^2 in 24-well plates, which were incubated at 37 °C and 5% CO2 with replacement of the culture media every 3 days.
(§1) The lactate dehydrogenase (LDH) assay provides an indication of loss of cell membrane integrity and was measured using a Promega CytoTox96® nonradioactive cytotoxicity assay kit (Southampton, UK) after 24 and 48 h of treatment. Absorption was read spectrophotometrically at 492 nm and converted to a percentage of the total LDH released from the positive control (untreated cells with complete lysis).

The next data set deals with HUVEC. The description is as above. It is filed as cell-based, human. The conditions noted are these: 25 to 400 µM, 24 and 48 h, absorbance 492 nm, n = 6. On the procedure: The synthesised AEP-K-FP was also tested on human umbilical vein endothelial cells (HUVECs) (ATCC- Manassas, VA, USA) (passages 35 to 39). HUVECs were routinely cultured in an endothelial basal medium (F-12K) containing 0.05 mg/mL of endothelial cell growth supplement (ECGS), 0.1 mg/mL of heparin (Gibco Gaithersburg, MD, USA) and adjusted to a final concentration of 10% v/v of FBS (according to the manufacturer’s recommendations).
as §1

Data set [1] deals with brain endothelial cells (bEnd.3). Description: Hoechst 33342/propidium iodide (HPI) staining, cell death assessment. The data set is classed as cell-based, mouse. The conditions noted are these: 100, 300 and 400 µM, 24 h, n = 6. The text has this: For cell death assessment, Hoechst 33342 and propidium iodide (PI) salt (HPI) was used (Sigma-Aldrich, Gillingham, UK). These intracellular dyes stain cells in which the Hoechst 33342 binds to DNA, so it is staining the nuclei, whereas PI stains […], resulting in emission of light observed under a fluorescent microscopy. Live cells appear blue with intact membranes on microscopic examination, and those at early and late apoptotic phases appear bright blue with shrinkage. On the other hand, necrotic or damaged cells appear red with ruptured membranes.
HPI dye was prepared by adding 900 µL of DMEM to a mixture solution of 50 µL of 1mg/mL Hoechst 33342 and 50 µL of 2 μg/mL PI in a glass vial. After 24 h of treatment and incubation, which were performed as previously discussed, an epi fluorescent microscopy (Olympus microscope equipped with a Nikon D1X camera, UK) was used to identify and count the cells with distinct morphologies. Cell counts for healthy (living), apoptotic, or necrotic cells were obtained from the same treatment in duplicate wells and from three different fields for each well. Counting of the cells was measured according to their appearance then averaged and expressed as a percent of the total cell number.

The next data set concerns bEnd.3 monolayer. Description: Penetration across in vitro BBB model (bEnd.3 monolayer on transwell). The data set is classed as in vitro ADME, mouse. Particulars: for Increase of percentage permeated relative to free FP: 200 µM; for Percentage permeated across in vitro BBB model (% of applied concentration): bEnd.3 monolayer on 12-transwell inserts, 200 µM in FBS-free, phenol-free culture media, HPLC C18, UV 248 nm. On the procedure:
The lyophilised powders of both AEP-K-FP and the free drug (FP) were dissolved in the FBS-free, phenol-free culture media in a concentration of 200 µM. Quantitative analysis of penetration for the free-drug and drug-attached delivery system was undertaken using HPLC (Agilent technology, Stockport, UK). The analysis was carried out using a hydrophobic C18 column (150 × 4.6 mm) at 25 °C and 20 μL of injection volume. The flow rate used was 0.6 mL/min, while the UV-detection wavelength was 248 nm, which is the λmax of FP [9]. The HPLC mobile phase solvents consisted of water/acetonitrile in which the gradient of eluent was run from 75:25 to 25:75 water: acetonitrile over 20 min. The standard curve for each molecule was obtained to calculate the percentage of the amount that transported across the in vitro BBB model.
To establish an in vitro BBB model, bEnd.3 cells were seeded on microporous membrane of 12-transwell inserts with complete culture media in a routine manner. Trans-endothelial electrical resistance (TEER) between apical and basolateral chambers was measured using an Evom voltometer (Sarasota, FL, USA) to determine the day of maximum values indicating tight junction formation, as previously described.

Data set [2] deals with γ-secretase in C6 glial cells. Description: Quantification of γ-secretase enzyme by sandwich ELISA in treated cells. The data set is classed as cell-based. The conditions noted are these: 200 µM in F-12K, 4 h, cell lysate supernatant, 6 readings, untreated control 28.43 ± 8.32. On the procedure: C6 glial cells (ATCC-) (passages less than 20) were seeded using the complete growth medium, which was made according to the ATCC product sheet by addition of FBS to a final concentration of 2.5% v/v and horse serum (Gibco Gaithersburg, MD, USA) to a final concentration of 15% v/v to F-12K medium. Experiments were performed when cells reached confluence.
The investigation is based on sandwich enzyme-linked immunosorbent assay (ELISA) technology using a γ-secretase enzyme kit (Abbexa Ltd., Cambridge, UK). After confluence, C6 glial cells were treated with 200 µM FP or AEP-K-FP / F-12K solution. Wells containing untreated C6 cells were also included as a control. After 4 h of incubation, cells were washed and lysed to be centrifuged, and the supernatant was collected for assaying the γ-secretase activity immediately, according to kit instructions. Data were expressed as pg/mL, following kit instructions.

Data set [3] can be described thus: Hydrolysis and drug release in acidic lysosome-mimicking buffer. The conditions noted are these: phthalate buffer pH 4.5; 200 µM; static, 24 h, 37 °C; HPLC. It is filed as physicochemical. The procedure:
The AEP-K-FP was analysed for the hydrolysis of the amide linkage that coupled the drug molecules to the peptide carrier as well as its amino acids residues. This hydrolysis of the complex was evaluated in an acidic solution mimicking the lysosomal pH conditions that are likely to be found in an inflamed tissue such as that of AD-affected brain tissue. The acidic buffer solution was prepared using a phthalate solution, according to manufacturer’s instructions (Thomas Scientific, Swedesboro, NJ, USA), to obtain a final pH of 4.5. The AEP-K-FP was dissolved in this buffer solution at a concentration of 200 µM and incubated at static conditions for 24 h, 37 °C. Samples were collected and analysed by HPLC.

Details of data set [4]: method as in PMID 7736686. The conditions noted are these: cited from earlier work.
The next data set relates to γ-secretase. Also noted: method as in PMID 20009055, PMID 18450517. The conditions noted are these: at target brain tissue; cited from earlier work.

As for `CC(C)C[C@H](NC(=O)[C@H](CC(C)C)NC(=O)[C@H](CCCNC(=N)N)NC(=O)[C@H](CCCCN)NC(=O)[C@H](CCCNC(=N)N)NC(=O)[C@H](CC(C)C)NC(=O)[C@H](CCCCN)NC(=O)[C@H](CCCNC(=N)N)NC(=O)[C@H](CC(C)C)NC(=O)[C@H](CCCCNC(=O)C(C)c1ccc(-c2ccccc2)c(F)c1)NC(=O)C(C)c1ccc(-c2ccccc2)c(F)c1)C(=O)N[C@@H](CCCNC(=N)N)C(=O)O` (stereo partly drawn) [AEP-K-FP] (X1-K(X1)LRKLRKRLLR-OH; N-terminus and C-terminus assumed), the “LDH release, % of positive control (complete lysis)” value in the data set with bEnd.3 cells and in the data set with HUVEC was “less than 50%” in each case. Moreover, the “Apoptotic cells, % of total cell number (HPI staining)” value in data set [1] is at most 4.7%. In data set [1], the “Healthy cells, % of total cell number (HPI staining)” value is listed as at least 91%. Besides, the “Necrotic cells, % of total cell number (HPI staining)” value in data set [1] is recorded as at most 3.4%. Moreover, the “Increase of percentage permeated relative to free FP” value is “more than 6 times” in the data set on bEnd.3 monolayer (bEnd.3 BBB model, 1 h) and 4 times with bEnd.3 monolayer (bEnd.3 BBB model, 4 h). Besides, the “Percentage permeated across in vitro BBB model (% of applied concentration)” value is listed as 16.3% with bEnd.3 monolayer (1 h) and 35.9% with bEnd.3 monolayer (4 h). Besides, in data set [2], the “γ-secretase enzyme amount, Mean ± SD” value was 14.6 pg/mL and 14.60 ± 3.51 pg/mL. In addition, the “Percentage of hydrolysed FP out of the total amount of AEP-K-FP” value in data set [3] worked out at 69.2%.

Regarding `CC(C(=O)O)c1ccc(-c2ccccc2)c(F)c1` (stereo not drawn) [FP, Flurbiprofen], the “Penetration, % of initial payload concentration” value in the data set on bEnd.3 monolayer (bEnd.3 BBB model, time not stated at this place (discussion)) is “less than 9%”. The “Percentage permeated across in vitro BBB model (% of applied concentration)” value with bEnd.3 monolayer (1 h) is given as at most 2.7%. Also, the “Percentage permeated across in vitro BBB model (% of applied concentration)” value with bEnd.3 monolayer (4 h) is recorded as at most 8.5%. For the same molecule, the “γ-secretase enzyme amount, Mean ± SD” value in data set [2] is 8.2 pg/mL and 8.20 ± 3.80 pg/mL. Besides, in data set [4], the Biological half-life is listed as 4 h and the “Time to full excretion from the body” value is reported as at most 24 h. Also, in the data set on γ-secretase, the “Required therapeutic concentration for significant pharmacological effect on γ-secretase activity” value is recorded as 150−250 μM.
